Measured values from doi:10.1101/2024.06.17.599268 (bioRxiv, 2024).
Where a chain is given by its changes, count along the chain named. Names may count otherwise.

B1: bMERB_(V978A) (domain or fragment)
chain: KEEEMKRFCKAQTIQRRLNEIEAALRELEAEGVKLELALRRQSSSPEQQKKLWVGQLLQLADKKNSLVAEEAELMITVQELNLEEKQWQLDQELRGYMNREENLKTAADRQAEDQVLRKLVDLVNQRDALIRFQEERRLSELALGTGAQG
B2: bMERB_(S960D) (domain or fragment)
chain: B1 chain with S43D, A61V
B3: Rab8a_(1-176) (natural protein)
chain: MAKTYDYLFKLLLIGDSGVGKTCVLFRFSEDAFNSTFISTIGIDFKIRTIELDGKRIKLQIWDTAGQERFRTITTAYYRGAMGIMLVYDITNEKSFDNIRNWIRNIEEHASADVEKMILGNKCDVNDKRQVSKERGEKLALDYGIKFMETSAKANINVENAFFTLARDIKAKMDKK
B4: bMERB_(V978A_V985A) (domain or fragment)
chain: B1 chain with V68A

Assays:
[1] = target: T1, Rab10_(1-175) (human, UniProt P61026 1-175); assay: crystal structure
T1 sequence: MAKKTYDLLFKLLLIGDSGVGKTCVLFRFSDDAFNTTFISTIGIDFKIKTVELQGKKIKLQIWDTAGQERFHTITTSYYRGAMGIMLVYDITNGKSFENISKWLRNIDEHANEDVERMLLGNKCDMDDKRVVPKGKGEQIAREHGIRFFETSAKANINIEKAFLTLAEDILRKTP

[2] = target: B3; assay: ITC
[3] = target: T2, Mical1 MO-CH-LIM (residues 1-781) (human, UniProt Q8TDZ2 1-781); assay: ITC
T2 sequence: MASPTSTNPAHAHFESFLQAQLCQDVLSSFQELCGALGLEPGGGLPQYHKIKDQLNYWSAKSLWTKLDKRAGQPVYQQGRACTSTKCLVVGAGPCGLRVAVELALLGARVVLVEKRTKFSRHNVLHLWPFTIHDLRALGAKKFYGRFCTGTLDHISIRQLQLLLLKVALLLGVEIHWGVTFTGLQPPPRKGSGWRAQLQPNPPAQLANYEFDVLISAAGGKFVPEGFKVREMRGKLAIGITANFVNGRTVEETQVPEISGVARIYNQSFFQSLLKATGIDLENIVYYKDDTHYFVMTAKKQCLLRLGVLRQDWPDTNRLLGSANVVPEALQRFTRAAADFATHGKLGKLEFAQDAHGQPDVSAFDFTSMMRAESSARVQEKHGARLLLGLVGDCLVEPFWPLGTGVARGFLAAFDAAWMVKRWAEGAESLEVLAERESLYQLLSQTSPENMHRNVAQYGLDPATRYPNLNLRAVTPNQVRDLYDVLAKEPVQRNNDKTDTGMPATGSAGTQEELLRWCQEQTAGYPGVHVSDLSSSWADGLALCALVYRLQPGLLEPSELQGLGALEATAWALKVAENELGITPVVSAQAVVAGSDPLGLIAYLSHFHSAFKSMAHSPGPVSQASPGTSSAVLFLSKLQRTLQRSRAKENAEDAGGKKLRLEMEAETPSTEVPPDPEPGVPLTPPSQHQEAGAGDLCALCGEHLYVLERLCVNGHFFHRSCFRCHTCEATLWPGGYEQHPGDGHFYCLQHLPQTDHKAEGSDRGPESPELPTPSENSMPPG

[4] = target: T1, Rab10_(1-175); assay: ITC
[5] = target: T3, Rab15_(1-176) (human, UniProt P59190 1-176); assay: ITC
T3 sequence: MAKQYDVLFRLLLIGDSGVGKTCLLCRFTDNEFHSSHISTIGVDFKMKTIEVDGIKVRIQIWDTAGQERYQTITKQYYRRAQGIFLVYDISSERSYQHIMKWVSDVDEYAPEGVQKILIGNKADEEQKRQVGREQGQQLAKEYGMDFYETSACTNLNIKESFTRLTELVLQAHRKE

[6] = target: T4, full-length Mical1 (human, UniProt Q8TDZ2 1-1067); assay: ITC
T4 sequence: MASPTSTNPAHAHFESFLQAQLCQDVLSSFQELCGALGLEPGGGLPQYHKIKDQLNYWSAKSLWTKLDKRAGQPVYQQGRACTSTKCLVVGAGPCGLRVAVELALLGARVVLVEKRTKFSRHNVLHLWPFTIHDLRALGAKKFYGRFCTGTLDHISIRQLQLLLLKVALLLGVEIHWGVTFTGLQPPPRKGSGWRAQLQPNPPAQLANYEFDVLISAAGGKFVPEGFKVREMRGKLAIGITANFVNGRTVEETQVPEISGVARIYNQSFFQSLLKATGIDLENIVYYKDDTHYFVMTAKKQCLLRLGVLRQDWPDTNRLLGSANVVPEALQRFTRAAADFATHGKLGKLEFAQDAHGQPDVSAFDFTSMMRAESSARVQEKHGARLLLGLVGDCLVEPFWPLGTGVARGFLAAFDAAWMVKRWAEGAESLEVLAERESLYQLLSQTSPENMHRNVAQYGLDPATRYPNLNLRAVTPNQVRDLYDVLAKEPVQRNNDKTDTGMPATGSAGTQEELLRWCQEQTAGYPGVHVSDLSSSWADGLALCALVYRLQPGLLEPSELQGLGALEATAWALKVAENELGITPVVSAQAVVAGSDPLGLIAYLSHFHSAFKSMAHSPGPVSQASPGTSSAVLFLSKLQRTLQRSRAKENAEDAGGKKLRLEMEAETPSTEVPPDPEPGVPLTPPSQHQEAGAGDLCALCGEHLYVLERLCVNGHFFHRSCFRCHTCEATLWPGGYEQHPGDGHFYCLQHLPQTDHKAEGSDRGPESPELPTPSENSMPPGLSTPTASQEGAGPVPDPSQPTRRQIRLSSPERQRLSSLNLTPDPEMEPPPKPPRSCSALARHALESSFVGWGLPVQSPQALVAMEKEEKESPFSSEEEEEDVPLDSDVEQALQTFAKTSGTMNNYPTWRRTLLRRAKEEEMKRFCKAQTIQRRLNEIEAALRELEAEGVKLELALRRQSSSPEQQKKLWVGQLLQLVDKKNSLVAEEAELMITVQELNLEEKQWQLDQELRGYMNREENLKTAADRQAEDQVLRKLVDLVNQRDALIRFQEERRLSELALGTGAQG

[7] = target: T5, bMERB_(M992A_I993A) (human, UniProt Q8TDZ2 918-1067, M992A | I993A); assay: ITC
T5 sequence: B1 chain with A61V, M75A, I76A

[8] = target: T6, bMERB_(L1047A_F1050A) (human, UniProt Q8TDZ2 918-1067, L1047A | F1050A); assay: ITC
T6 sequence: B1 chain with A61V, L130A, F133A

[9] = target: B4; assay: ITC
[10] = target: T7, Mical1 bMERB domain (residues 918-1067) (human, UniProt Q8TDZ2 918-1067); assay: ITC
T7 sequence: B1 chain with A61V

[11] = target: B3; assay: SEC
[12] = target: T1, Rab10_(1-175); assay: SEC
[13] = target: T8, Rab13_(1-176) (human, UniProt P51153 1-176); assay: SEC
T8 sequence: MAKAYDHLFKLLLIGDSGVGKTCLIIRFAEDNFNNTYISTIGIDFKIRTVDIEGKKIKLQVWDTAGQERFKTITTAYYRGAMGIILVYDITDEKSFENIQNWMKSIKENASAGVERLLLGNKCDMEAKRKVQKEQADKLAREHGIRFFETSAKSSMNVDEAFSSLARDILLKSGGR

[14] = target: T3, Rab15_(1-176); assay: SEC

B1
binding result [1]: binds | binding result [2]: binds | fold reduction in affinity against wild-type bMERB [3]: 2 fold

B2
binding result [2]: binds | binding result [4]: binds | binding result [5]: binds | binding result [3]: binds

B3
stoichiometry N [6]: 2 | fold decrease in N-terminal (Nt-RBS1) Rab binding against wild-type bMERB [7]: > 30 fold | fold decrease in C-terminal (Ct-RBS2) Rab8 binding against wild-type bMERB [8]: > 20 fold | fold decrease in N-terminal (Nt-RBS1) Rab binding against wild-type bMERB [8]: 10 fold | stoichiometry N [9]: 1 | stoichiometry N [10]: 2

B4
binding result [11]: binds | binding result [12]: binds | binding result [13]: binds | binding result [14]: binds
